Reference: the supplement of paper PMC10567573
± gives the standard deviation.

Experiment: protein stability index of a GFP-peptide fusion (GPS, HEK-293T) (PSI 1-6); higher = more stable
[1] = treatment: DMSO, c terminus: a fixed tail appended
[2] = treatment: MLN4924 1 uM, 8 h, c terminus: a fixed tail appended
[3] = treatment: DMSO, c terminus: native
[4] = treatment: MLN4924 1 uM, 8 h, c terminus: native
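Further: 24-mer peptide tiles fused after GFP, lentivirally expressed, FACS-sorted into six equal bins by GFP/DsRed ratio, decoded by Illumina sequencing, PSI is the read-weighted mean bin number.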

Sequence	protein stability index [1]	protein stability index [2]	protein stability index [3]	protein stability index [4]
FKPLNSTPATTTEPPKPTFPAYTQ [ZNF207]	3.84 ± 0.26	3.9 ± 0.14	–	–
FKRWIYLNDQNLCIPASSSFVYGA [GAN]	2.41 ± 0.37	2.47 ± 0.38	–	–
FLVFILNAGLVWFFPWREAKPGST [MFSD9]	3.21 ± 0.74	3.11 ± 0.19	–	–
FMEERELLGQDEETAMRKSLGEEE [RSPH3]	5.58 ± 0.12	5.46 ± 0.4	–	–
FMSPCDKFRAKGRKPCKLMLQVVK [MCOLN1]	2.26 ± 0.26	2.38 ± 0.24	–	–
FPEELHRKAALEQDLAFWYGPRWQ [HMOX1]	2.3 ± 0.25	2.62 ± 0.31	–	–
FSDGEKCRREAFRRLGNGVSDDLS [PHTF1]	4.05 ± 0.13	3.82 ± 0.17	–	–
FSEEDEEETTSQDWGTPRELTFSY [RTN2]	4.22 ± 0.15	4.22 ± 0.49	–	–
FSHITSARKARKYEIPHFRLKKVE [PHTF1]	2.53 ± 0.47	2.82 ± 0.4	–	–
FSIDEELVYENFYADFGPLNLAMV [CDC14A]	2.75 ± 0.6	2.43 ± 0.6	–	–
FSVSSTSRRIYRCRNCINLQNEAQ [IQUB]	2.02 ± 0.19	2.34 ± 0.34	–	–
FTDPFFIVETLCIIWFSFELVVRF [KCNA1]	3.26 ± 0.13	3.18 ± 0.69	–	–
FTDTSIILFLNKKDLFEEKIKKSP [GNAI1]	2.2 ± 0.97	2.35 ± 1.1	–	–
FVALKSVRVPNGGGGGGGLPISTV [CDK4]	2.52 ± 0.24	2.41 ± 0.33	–	–
FVETRLRDLPDTPRRFTFYPCVLA [TRIM39]	2.63 ± 0.68	2.16 ± 0.071	–	–
FVSALGITAGAHRLWSHRSYKARL [SCD]	2.73 ± 0.93	2.5 ± 0.24	–	–
FYRYKMPRLIAKVEGKGNGIKTVI [EIF5]	2.28 ± 0.45	2.26 ± 0.23	–	–
GAFETVLASAYTGRLSMAAADIVN [ZBTB22]	2.88 ± 0.61	2.91 ± 0.59	–	–
GALTGKENNMLQPETHIFTAPEEV [DMRTC1]	5.19 ± 0.17	5.01 ± 0.16	–	–
GARYEVTVVSVRGFEESEPLTGFL [TNXB]	2.53 ± 0.79	2.38 ± 0.59	–	–
GATALHFAAEAGHIDIVKELIKWR [FEM1B]	2.39 ± 0.35	2.43 ± 0.33	–	–
GATVGRKSRRSRSESETSTMAAKK [C18orf25]	5.23 ± 0.31	5.48 ± 0.27	–	–
GCILFEYYRGFTLFQTHENREHLV [CLK3]	2.97 ± 0.85	2.21 ± 0.69	–	–

Sequence	protein stability index [1]	protein stability index [2]	protein stability index [3]	protein stability index [4]
GDIHLSPEEPAASTDPNIVRKKER [TAF7L]	5.38 ± 0.32	5.43 ± 0.27	–	–
GDKASPDQNASTHTPQSSVKTSVP [CLINT1]	5.54 ± 0.19	5.38 ± 0.28	–	–
GDQEGPRPARSTLDELLGRGMATK [FBF1]	4.62 ± 0.27	4.73 ± 0.11	–	–
GDRAGDASKDILLGPWDMVLAQG [SCARA5]	–	–	2.76 ± 0.64	2.69 ± 0.54
GDTSATESGDEVPVELYTAFQHTP [KMT2E]	4.97 ± 0.18	5.04 ± 0.17	–	–
GERVVINISGLRFETQLKTLCQFP [KCNA3]	2.61 ± 0.45	2.19 ± 0.083	–	–
GESDNPLRFTSGLVVALDVDATLE [INTS4]	3.23 ± 0.37	3.54 ± 0.15	–	–
GFIKKFVLCPECENPETDLHVNPK [EIF5]	3.09 ± 0.38	3.29 ± 0.05	–	–
GGLLDEAMLDEISLMDLAIEEGFN [NFE2L1]	4.16 ± 0.21	3.86 ± 0.31	–	–
GGLSLHDYKLLKPSLAVNLADPYR [JUNB]	2.65 ± 0.13	2.76 ± 0.098	–	–
GGPAGQAGRGGAAGTAGVGETGSG [MYOZ1]	5.42 ± 0.21	5.34 ± 0.32	–	–
GGSSGKGTTLRGRSDADLVVFLSP [OAS1]	2.73 ± 0.17	3.07 ± 0.35	–	–
GGWETVFRPVSETCTDRSGISTGH [FUT8]	3.48 ± 0.35	3.43 ± 0.22	–	–
GGYRPAEDKIFPVPEEPPVKKLMR [ZBED1]	3.99 ± 0.13	4.36 ± 0.3	–	–
GKIIGGMWRDLTDEEKQEYLNEYE [SMARCE1]	4.56 ± 0.14	4.64 ± 0.27	–	–
GKNNEFSRLVAGEYLSFFDFSGLT [PSD2]	2.13 ± 0.41	2.13 ± 0.32	–	–
GKRMEFTSSCPNVSERSFDNVRSL [CRYBA1]	4.12 ± 0.3	4.17 ± 0.28	–	–
GKRTPRGRRGWKKFYAVLKGTILY [PSD2]	2.97 ± 1.6	2.61 ± 0.73	–	–
GKVAVGQDDLTVVLNEEGICTQKC [VPS39]	4.91 ± 0.22	4.79 ± 0.28	–	–
GLEQFINKVAGHPLAQNERCLHMF [SNX3]	2.72 ± 0.61	2.21 ± 0.11	–	–
GNIKGIEGHSPGNLPKFCHECGTK [ZC2HC1A]	3.82 ± 0.52	4.59 ± 0.085	–	–
GPASRMDPESERALQAPHSPSKTD [PBXIP1]	5.46 ± 0.24	5.34 ± 0.23	–	–
GPFRTLLQFLYTGQLDEKEKDLVG [RHOBTB1]	2 ± 0.054	2.49 ± 0.3	–	–

Sequence	protein stability index [1]	protein stability index [2]	protein stability index [3]	protein stability index [4]
GPMCDLLWSDPDDRGGWGISPRGA [PPP2CA]	3.1 ± 0.42	3.21 ± 0.33	–	–
GPNPSKLIQQFLTLRPDQQLHIFN [CDS2]	2.16 ± 0.42	2.09 ± 0.25	–	–
GQDTMLKAMFSGRVEVLTDAGGWV [KCTD13]	2.45 ± 0.26	2.36 ± 0.35	–	–
GQPAPPQLLLGRLFRWPDLQHAVE [SMAD6]	2.63 ± 0.1	2.82 ± 0.39	–	–
GQTTGHPYYLRSFLVVLKTVLENE [FAN1]	2.46 ± 0.5	2.21 ± 0.04	–	–
GRTHSACDALRTLAEARRLFPGRV [RSAD1]	2.99 ± 0.29	3.44 ± 0.29	–	–
GSGYEKLGPSRDPDPLNICVFILL [RTP4]	3.15 ± 0.2	2.45 ± 0.68	–	–
GSNPPYLPFRDASFGNCTYNLTIL [CDC14A]	2.6 ± 0.69	2.8 ± 0.73	–	–
GSPDDSHPKDGPSPGGTLMDLSER [DLC1]	5.54 ± 0.32	5.48 ± 0.28	–	–
GSPVSSWILLAESNSADDETDDPR [OAS1]	5.02 ± 0.27	4.99 ± 0.39	–	–
GSRVISHYAGQDATDPFVAFHINK [FADS1]	3.33 ± 0.31	3.35 ± 0.22	–	–
GSSSVALPKEASDGTGASQEPPTT [TOR1AIP2]	5.4 ± 0.43	5.6 ± 0.34	–	–
GTAGPLALARDLLSETADPFFVLN [GMPPB]	3.18 ± 0.31	3.23 ± 0.27	–	–
GTRGRLESAQATFQAHRDKYEKLR [ARFIP2]	4.27 ± 0.31	4.44 ± 0.28	–	–
GTRYSAPANLYVRELREVRRVPPR [PTPRD]	4.23 ± 0.23	3.9 ± 0.12	–	–
GVGAYGTVYKARDPHSGHFVALKS [CDK4]	2.89 ± 0.12	3.05 ± 0.32	–	–
GVGGKRSSKSDADSGFLGLRPTSV [NOP53]	4.16 ± 0.44	4.03 ± 0.27	–	–
GVIDLFGDAFGSSASEPQPASQAA [SNAP91]	3.98 ± 0.14	4.11 ± 0.17	–	–
GVLVEDSNNHHLMLEASEWATIEG [ZBED1]	4.2 ± 0.33	4.6 ± 0.32	–	–
GVSFSTVENELMISYLMFLQILVY [FAM98B]	3.08 ± 0.45	3.22 ± 0.41	–	–
GVSYTFDNEDSELNGDYGENIYPY [MIA2]	3.93 ± 0.061	3.77 ± 0.55	–	–
GWFVRELRVEFAAENYLSGGGPGD [FBXO33]	2.14 ± 0.27	2.21 ± 0.28	–	–
GYPAAPPAVPFAPHFLQGGPFPLP [TBX6]	2.52 ± 0.58	2.7 ± 0.35	–	–

Sequence	protein stability index [1]	protein stability index [2]	protein stability index [3]	protein stability index [4]
HADCDRRSRIEALELLGASFANDR [FEM1B]	3.98 ± 0.31	4.17 ± 0.19	–	–
HAVVEVEDVPLAAKLVDLPCVIES [TAF7L]	3.86 ± 0.28	4.03 ± 0.17	–	–
HCGELKRRLGLSTLGELKQNLSRS [TPD52L2]	3.04 ± 0.22	3.22 ± 0.44	–	–
HFCVDDTKLLSGSYDCTVKLWDPV [WDR88]	2.65 ± 0.24	2.58 ± 0.23	–	–
HGDYFRLLLPGIYTVSATAPGYDP [CPN1]	2.78 ± 0.71	2.48 ± 0.48	–	–
HGIELHSDVVEYAKEKLESFIKNS [PCMTD1]	3.95 ± 0.35	4.04 ± 0.15	–	–
HGRHIDCPATWGPSVEQAADSLDF [FOXJ1]	4.31 ± 0.22	4.58 ± 0.11	–	–
HIFAHRIYLATSSSKFYDLFLMEC [RHOBTB1]	3.07 ± 0.6	2.38 ± 0.49	–	–
HKTHQAPASASSLPGTGAQLPPQP [DYRK1B]	4.55 ± 0.43	4.97 ± 0.22	–	–
HLDHYYQEELPALLKALVSELSEH [FCHSD1]	2.3 ± 0.079	2.15 ± 0.37	–	–
HLQEYAGNFQGIRFHYDRNPGTDA [FATE1]	3.37 ± 0.39	3.46 ± 0.3	–	–
HMVKISGGPRISYPLLHEWALREG [MAGEA6]	2.47 ± 0.23	2.46 ± 0.22	–	–
HRSACSSAAVRGHPRALPPDARPH [HAGHL]	3.81 ± 0.19	3.77 ± 0.17	–	–
HSYMGMRGFCAFLGSWLVPFAYLT [POMT2]	2.96 ± 0.86	3.04 ± 0.62	–	–
HTCLMISCYKGHREIARYLLEQGA [FEM1A]	2.46 ± 0.5	2.38 ± 0.35	–	–
HTGERPYECTVCKKRFTRRSHLIG [ZNF449]	2.67 ± 0.36	3.17 ± 0.88	–	–
HVIGEDAACIAYIRLTQYIDGQGR [CAMK2B]	2.15 ± 0.21	2.08 ± 0.2	–	–
HWATGYSKSSHPLIRSLFHGFLFM [SOAT1]	2.86 ± 0.7	2.49 ± 0.56	–	–
HYICTLKQPHLLLEKYSYYLISG [PNLIPRP1]	–	–	3.31 ± 0.66	3.39 ± 0.14
HYYPKLMSIMGNVLRFLPAFVRMK [GFOD1]	2.41 ± 0.12	2.24 ± 0.12	–	–
